Results: publication PMC9798004 (Frontiers in Psychiatry, 2022)

Assays:
Assay in all cases: PathHunter β-arrestin assay
Format in all cases: cell-based
[1] = biological target: T1, RXFP3 (Homo sapiens, UniProt Q9NSD7); conditions: screen, control agonist; CHO, 37C, 2HR
T1 construct: purchased Eurofins DiscoverX (PathHunter gpcrMAX)
T1 sequence (Q9NSD7 1-469): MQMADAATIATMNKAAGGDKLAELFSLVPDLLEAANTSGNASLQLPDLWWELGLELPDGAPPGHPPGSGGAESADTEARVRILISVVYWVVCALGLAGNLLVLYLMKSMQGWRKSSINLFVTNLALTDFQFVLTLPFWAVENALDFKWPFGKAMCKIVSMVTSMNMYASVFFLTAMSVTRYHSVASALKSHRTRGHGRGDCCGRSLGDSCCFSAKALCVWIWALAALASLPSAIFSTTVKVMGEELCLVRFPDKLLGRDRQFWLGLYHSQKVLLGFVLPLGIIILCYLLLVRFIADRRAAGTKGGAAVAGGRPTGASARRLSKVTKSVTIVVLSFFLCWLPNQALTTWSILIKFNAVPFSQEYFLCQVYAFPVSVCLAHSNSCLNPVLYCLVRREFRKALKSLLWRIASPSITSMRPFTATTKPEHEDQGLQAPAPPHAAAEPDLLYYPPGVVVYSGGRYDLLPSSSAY

[2] = biological target: T2, P2RY1 (Homo sapiens, UniProt P47900); conditions: screen, control agonist; U2OS, RT, 2HR
T2 construct: purchased Eurofins DiscoverX (PathHunter gpcrMAX)
T2 sequence (P47900 whole entry): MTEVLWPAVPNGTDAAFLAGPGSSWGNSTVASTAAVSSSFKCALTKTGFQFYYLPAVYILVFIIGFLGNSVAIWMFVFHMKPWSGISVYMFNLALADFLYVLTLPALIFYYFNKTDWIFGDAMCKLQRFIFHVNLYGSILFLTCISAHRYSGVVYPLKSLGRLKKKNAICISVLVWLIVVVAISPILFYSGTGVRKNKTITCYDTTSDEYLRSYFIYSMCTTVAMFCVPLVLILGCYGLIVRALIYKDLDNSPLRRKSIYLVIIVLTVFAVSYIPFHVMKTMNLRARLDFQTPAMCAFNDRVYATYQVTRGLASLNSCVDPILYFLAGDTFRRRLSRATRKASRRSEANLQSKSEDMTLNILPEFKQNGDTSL

[3] = biological target: T3, P2RY12 (Homo sapiens, UniProt Q9H244); conditions: screen, control agonist; CHO, RT, 2HR
T3 construct: purchased Eurofins DiscoverX (PathHunter gpcrMAX)
T3 sequence (Q9H244 whole entry, one chain of several): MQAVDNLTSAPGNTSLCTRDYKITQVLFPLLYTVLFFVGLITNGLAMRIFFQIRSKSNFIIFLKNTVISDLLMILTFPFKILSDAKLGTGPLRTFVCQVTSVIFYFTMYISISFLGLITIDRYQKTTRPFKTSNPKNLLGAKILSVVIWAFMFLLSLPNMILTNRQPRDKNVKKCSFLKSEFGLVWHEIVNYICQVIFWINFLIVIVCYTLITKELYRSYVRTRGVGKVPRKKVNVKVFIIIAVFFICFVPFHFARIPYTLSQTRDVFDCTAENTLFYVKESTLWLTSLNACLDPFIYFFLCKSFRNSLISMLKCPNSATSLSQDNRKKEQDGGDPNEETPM

[4] = biological target: T4, PTAFR (Homo sapiens, UniProt P25105); conditions: screen, control agonist; CHO, 37C, 2HR
T4 construct: purchased Eurofins DiscoverX (PathHunter gpcrMAX)
T4 sequence (P25105 whole entry): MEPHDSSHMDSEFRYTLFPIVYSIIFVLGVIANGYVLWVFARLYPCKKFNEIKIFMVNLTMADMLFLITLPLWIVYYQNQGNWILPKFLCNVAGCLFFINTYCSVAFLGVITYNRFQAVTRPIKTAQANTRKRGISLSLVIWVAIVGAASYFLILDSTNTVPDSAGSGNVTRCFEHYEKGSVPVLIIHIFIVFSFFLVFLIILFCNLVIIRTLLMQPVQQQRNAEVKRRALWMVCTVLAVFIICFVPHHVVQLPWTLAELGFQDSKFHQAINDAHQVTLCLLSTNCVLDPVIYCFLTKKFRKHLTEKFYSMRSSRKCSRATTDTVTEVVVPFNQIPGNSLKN

[5] = biological target: T5, P2RY11 (Homo sapiens, UniProt Q96G91); conditions: screen, control agonist; CHO, 37C, 2HR
T5 construct: purchased Eurofins DiscoverX (PathHunter gpcrMAX)
T5 sequence (Q96G91 whole entry, one chain of several): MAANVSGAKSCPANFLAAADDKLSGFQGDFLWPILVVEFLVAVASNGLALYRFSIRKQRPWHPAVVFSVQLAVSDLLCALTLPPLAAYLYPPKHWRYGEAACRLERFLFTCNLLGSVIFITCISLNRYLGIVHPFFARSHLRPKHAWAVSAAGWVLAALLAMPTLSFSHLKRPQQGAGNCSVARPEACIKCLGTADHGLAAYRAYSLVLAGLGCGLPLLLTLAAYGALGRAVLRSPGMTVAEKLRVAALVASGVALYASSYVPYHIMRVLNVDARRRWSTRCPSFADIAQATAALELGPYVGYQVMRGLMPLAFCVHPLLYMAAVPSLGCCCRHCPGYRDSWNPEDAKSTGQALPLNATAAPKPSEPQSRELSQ

[6] = biological target: T6, TBXA2R (Homo sapiens, UniProt P21731); conditions: screen, control agonist; U2OS, 37C, 2HR
T6 construct: purchased Eurofins DiscoverX (PathHunter gpcrMAX)
T6 sequence (P21731 whole entry): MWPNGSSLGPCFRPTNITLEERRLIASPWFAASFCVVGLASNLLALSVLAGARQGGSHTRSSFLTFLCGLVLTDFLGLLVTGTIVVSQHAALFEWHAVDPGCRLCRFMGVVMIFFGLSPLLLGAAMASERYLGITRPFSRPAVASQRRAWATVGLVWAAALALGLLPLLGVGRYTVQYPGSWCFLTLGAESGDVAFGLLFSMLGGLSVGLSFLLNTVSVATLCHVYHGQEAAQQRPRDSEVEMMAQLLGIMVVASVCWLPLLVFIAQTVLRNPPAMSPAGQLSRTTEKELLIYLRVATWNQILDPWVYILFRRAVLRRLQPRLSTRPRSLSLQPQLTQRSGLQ

[7] = biological target: T7, TACR3 (Homo sapiens, UniProt P29371); conditions: screen, control agonist; CHO, 37C, 2HR
T7 construct: purchased Eurofins DiscoverX (PathHunter gpcrMAX)
T7 sequence (P29371 1-465): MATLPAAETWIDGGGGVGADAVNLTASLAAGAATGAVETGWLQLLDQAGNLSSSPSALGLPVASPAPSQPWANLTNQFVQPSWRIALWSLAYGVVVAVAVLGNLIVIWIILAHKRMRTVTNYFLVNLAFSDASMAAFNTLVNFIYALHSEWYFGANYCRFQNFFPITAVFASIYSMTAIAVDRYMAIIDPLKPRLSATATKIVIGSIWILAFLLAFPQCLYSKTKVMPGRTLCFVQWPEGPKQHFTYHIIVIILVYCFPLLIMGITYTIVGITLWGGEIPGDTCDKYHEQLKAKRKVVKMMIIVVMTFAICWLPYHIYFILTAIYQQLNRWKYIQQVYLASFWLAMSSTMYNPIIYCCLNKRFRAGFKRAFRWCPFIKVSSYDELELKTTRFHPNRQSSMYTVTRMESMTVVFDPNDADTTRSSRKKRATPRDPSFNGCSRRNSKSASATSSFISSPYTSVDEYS

[8] = biological target: T8, BDKRB1 (Homo sapiens, UniProt P46663); conditions: screen, control agonist; CHO, 37C, 2HR
T8 construct: purchased Eurofins DiscoverX (PathHunter gpcrMAX)
T8 sequence (P46663 whole entry): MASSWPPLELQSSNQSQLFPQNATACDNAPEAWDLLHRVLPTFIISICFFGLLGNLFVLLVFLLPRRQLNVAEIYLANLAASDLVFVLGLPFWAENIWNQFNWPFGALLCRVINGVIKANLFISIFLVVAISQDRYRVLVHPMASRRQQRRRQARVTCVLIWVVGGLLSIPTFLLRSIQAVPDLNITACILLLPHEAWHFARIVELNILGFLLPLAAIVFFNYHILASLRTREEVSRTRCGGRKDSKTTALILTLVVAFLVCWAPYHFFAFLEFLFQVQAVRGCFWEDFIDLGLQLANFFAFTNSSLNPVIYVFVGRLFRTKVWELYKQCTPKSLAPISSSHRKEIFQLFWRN

[9] = biological target: T9, CALCR (Homo sapiens, UniProt P30988); conditions: screen, control agonist; U2OS, 37C, 2HR
T9 construct: purchased Eurofins DiscoverX (PathHunter gpcrMAX)
T9 sequence (P30988 25-474): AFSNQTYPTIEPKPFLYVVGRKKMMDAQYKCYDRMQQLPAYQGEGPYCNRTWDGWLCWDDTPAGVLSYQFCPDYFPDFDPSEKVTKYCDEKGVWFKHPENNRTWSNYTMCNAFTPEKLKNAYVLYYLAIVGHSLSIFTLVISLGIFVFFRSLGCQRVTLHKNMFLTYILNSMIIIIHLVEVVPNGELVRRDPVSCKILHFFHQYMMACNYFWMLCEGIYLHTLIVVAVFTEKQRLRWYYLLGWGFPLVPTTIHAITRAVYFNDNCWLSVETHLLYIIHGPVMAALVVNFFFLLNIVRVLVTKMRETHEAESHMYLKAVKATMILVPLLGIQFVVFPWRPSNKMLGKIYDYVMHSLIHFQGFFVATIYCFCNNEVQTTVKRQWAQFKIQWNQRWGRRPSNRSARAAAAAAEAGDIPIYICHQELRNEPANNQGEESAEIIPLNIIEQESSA

[10] = biological target: CALCR-RAMP2 (Homo sapiens, UniProt O60895+P30988); conditions: control agonist
CALCR-RAMP2, sequence (O60895 43-175 partner, one chain of several): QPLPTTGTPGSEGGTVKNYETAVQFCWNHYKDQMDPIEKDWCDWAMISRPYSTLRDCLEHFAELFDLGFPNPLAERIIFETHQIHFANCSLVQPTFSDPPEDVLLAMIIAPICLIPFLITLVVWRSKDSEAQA

[11] = biological target: T10, CALCR-RAMP3 (Homo sapiens, UniProt O60896+P30988); conditions: screen, control agonist; CHO, RT, 2HR
T10 construct: purchased Eurofins DiscoverX (PathHunter gpcrMAX)
T10 sequence (P30988 25-474): T9 sequence (P30988 25-474)
T10 sequence (O60896 24-148 partner): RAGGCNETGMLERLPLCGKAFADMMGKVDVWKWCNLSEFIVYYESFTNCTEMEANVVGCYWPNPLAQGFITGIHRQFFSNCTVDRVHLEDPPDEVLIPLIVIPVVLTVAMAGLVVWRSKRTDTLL

[12] = biological target: T11, PROKR1 (Homo sapiens, UniProt Q8TCW9); conditions: screen, control agonist; CHO, 37C, 2HR
T11 construct: purchased Eurofins DiscoverX (PathHunter gpcrMAX)
T11 sequence (Q8TCW9 whole entry): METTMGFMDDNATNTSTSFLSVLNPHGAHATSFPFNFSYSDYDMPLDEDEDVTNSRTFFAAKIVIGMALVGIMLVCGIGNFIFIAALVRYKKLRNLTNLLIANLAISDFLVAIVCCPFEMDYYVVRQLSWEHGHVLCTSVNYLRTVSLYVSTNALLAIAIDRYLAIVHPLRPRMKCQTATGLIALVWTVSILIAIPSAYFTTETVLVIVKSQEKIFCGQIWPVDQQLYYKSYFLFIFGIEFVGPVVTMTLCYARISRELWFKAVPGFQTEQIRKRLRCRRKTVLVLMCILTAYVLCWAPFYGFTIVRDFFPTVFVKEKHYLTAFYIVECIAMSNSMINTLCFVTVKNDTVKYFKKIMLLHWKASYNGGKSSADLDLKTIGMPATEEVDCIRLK

[13] = biological target: T12, PROKR2 (Homo sapiens, UniProt Q8NFJ6); conditions: screen, control agonist; CHO, 37C, 2HR
T12 construct: purchased Eurofins DiscoverX (PathHunter gpcrMAX)
T12 sequence (Q8NFJ6 whole entry): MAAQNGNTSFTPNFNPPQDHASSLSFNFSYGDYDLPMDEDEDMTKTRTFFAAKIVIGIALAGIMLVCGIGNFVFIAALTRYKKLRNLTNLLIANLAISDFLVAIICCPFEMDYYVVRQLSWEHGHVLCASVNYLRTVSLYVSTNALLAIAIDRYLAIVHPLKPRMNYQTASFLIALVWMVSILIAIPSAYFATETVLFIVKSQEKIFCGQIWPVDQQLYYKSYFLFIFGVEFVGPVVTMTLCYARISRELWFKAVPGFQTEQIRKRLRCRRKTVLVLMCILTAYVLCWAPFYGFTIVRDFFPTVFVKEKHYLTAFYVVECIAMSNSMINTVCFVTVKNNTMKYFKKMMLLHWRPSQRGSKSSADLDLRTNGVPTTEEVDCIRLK

[14] = biological target: T13, C5AR1 (Homo sapiens, UniProt P21730); conditions: screen, control agonist; CHO, RT, 2HR
T13 construct: purchased Eurofins DiscoverX (PathHunter gpcrMAX)
T13 sequence (P21730 1-350): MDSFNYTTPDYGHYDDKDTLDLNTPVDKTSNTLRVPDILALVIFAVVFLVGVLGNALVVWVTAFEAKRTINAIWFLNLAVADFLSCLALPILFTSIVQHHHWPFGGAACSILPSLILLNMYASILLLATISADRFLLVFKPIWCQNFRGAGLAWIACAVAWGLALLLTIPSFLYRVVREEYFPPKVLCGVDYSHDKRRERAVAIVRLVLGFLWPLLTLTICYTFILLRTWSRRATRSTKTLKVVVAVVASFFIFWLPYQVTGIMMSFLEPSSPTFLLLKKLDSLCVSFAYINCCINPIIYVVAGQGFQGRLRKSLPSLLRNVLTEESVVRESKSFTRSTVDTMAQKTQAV

[15] = biological target: T14, C5L2 (Homo sapiens, UniProt Q9P296); conditions: screen, control agonist; CHO, 37C, 2HR
T14 construct: purchased Eurofins DiscoverX (PathHunter gpcrMAX)
T14 sequence (Q9P296 whole entry): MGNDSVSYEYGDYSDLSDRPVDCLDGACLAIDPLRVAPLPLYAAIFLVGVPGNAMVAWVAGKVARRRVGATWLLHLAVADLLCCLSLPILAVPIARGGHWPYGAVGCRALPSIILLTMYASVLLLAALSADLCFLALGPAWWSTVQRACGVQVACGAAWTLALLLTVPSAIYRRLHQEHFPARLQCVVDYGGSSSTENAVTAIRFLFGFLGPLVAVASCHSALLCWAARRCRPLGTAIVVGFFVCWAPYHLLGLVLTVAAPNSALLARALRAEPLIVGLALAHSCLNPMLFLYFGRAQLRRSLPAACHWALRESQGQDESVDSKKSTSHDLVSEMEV

## Relaxin-3
[1]
  EC80: 0.0627 µM

## CSc1nc(N)c2ncn([C@@H]3O[C@H](COP(=O)(O)OP(=O)(O)O)[C@@H](O)[C@H]3O)c2n1 [2-methylthio-ADP]
[2]
  EC80: 0.0414 µM
[3]
  EC80: 1.57 nM

## CCCCCCCCCCCCCCCCOC[C@H](COP(=O)([O-])OCC[N+](C)(C)C)OC(C)=O [PAF]
[4]
  EC80: 0.019 µM

## Nc1ncnc2c1ncn2[C@@H]1O[C@H](COP(=O)(O)OP(=O)(O)OP(=O)(O)O)[C@@H](O)[C@H]1O [ATP]
[5]
  EC80: 1290 µM

## O=C(O)CCC/C=C\C[C@@H]1[C@@H](/C=C/[C@@H](O)COc2ccc(I)cc2)[C@H]2CC[C@@H]1O2 [I-BOP]
[6]
  EC80: 0.0291 µM

## Substance P
[7]
  EC80: 0.0804 µM

## LDA-Bradykinin
[8]
  EC80: 4.67 nM

## Calcitonin
[9]
  EC80: 0.0377 µM
[10]; follow-up concentration-response assays
  EC80: 0.035 µM
[10]; screen, CHO, 37C, 2HR
  EC80: 0.0305 µM
[11]
  EC80: 1.15 µM

B1: EG VEGF: control agonist for PROKR1 and PROKR2 (protein, UniProt P58294 20-105, looked up)
Prokineticin-1: AVITGACERDVQCGAGTCCAISLWLRGLRMCTPLGREGEECHPGSHKVPFFRKRKHHTCPCLPNLLCSRFPDGRYRCSMDLKNINF
[12]
  EC80: 0.0533 µM
[13]
  EC80: 0.0302 µM

B2: Complement C5a: control agonist (protein, UniProt P01031 678-751, looked up)
C5a anaphylatoxin: TLQKKIEEIAAKYKHSVVKKCCYDGACVNNDETCEQRAARISLGPRCIKAFTECCVVASQLRANISHKDMQLGR
modifications: C5a anaphylatoxin
notes: control agonist
[14]
  EC80: 3.6 nM
[15]
  EC80: 2.7 nM
